{"source": "patent US20220177587A1", "about": "“METHODS AND USES OF VARIANT CD80 FUSION PROTEINS AND RELATED CONSTRUCTS” (Alpine Immune Sciences, Inc., priority 2018, published 2022)", "molecules": {"B1": {"name": "M47L/V68M/A71G/D90G (protein)", "chain": "VIHVTKEVKEVATLSCGHNVSVEELAQTRIYWQKEKKMVLTMMSGDLNIWPEYKNRTIFDITNNLSIMILGLRPSDEGTYECVVLKYEKGAFKREHLAEVTLSVKAD"}, "B2": {"name": "E35D/M47L/A71G/D90G (protein)", "chain": "B1 chain with E35D, M68V"}, "B3": {"name": "H18Y/V68M/A71G/D90G (protein)", "chain": "B1 chain with H18Y, L47M"}, "B4": {"name": "E35D/M47L/V68M/D90G (protein)", "chain": "B1 chain with E35D, G71A"}, "B5": {"name": "H18Y/A26E/E35D/M47L (protein)", "chain": "B1 chain with H18Y, A26E, E35D, M68V, G71A, G90D"}, "B6": {"name": "A26E/M47L/A71G/D90G (protein)", "chain": "B1 chain with A26E, M68V"}}, "note": "Numbering of substitutions follows the chain as printed. Names may count otherwise."}
{"biological_target": "T1, CD28 (Homo sapiens, UniProt P10747)", "assay": "Flow binding to Jurkat/IL2 reporter cells (CD28)", "parameters": "host or cells: Jurkat cells expressing an IL-2-luciferase reporter", "settings": "Table E20; Jurkats (CD28); 33.3 nM", "in_short": "(§1)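 Cells were first blocked in PBS with 1% BSA and 0.1% sodium azide. Primary staining with fusion protein ran 45 min on ice, and secondary staining with PE anti-human Fc at 1:150 ran 30 min on ice.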"}
{"molecule": "B1", "CD28 MFI at 33.3 nM": 3610}
{"molecule": "B2", "CD28 MFI at 33.3 nM": 1331}
{"molecule": "B3", "CD28 MFI at 33.3 nM": 3414}
{"molecule": "B4", "CD28 MFI at 33.3 nM": 3414}
{"molecule": "B5", "CD28 MFI at 33.3 nM": 324}
{"molecule": "B6", "CD28 MFI at 33.3 nM": 1955}
{"biological_target": "T1, CD28", "assay": "Flow binding to Jurkat/IL2 reporter cells (CD28)", "parameters": "host or cells: Jurkat cells expressing an IL-2-luciferase reporter", "settings": "Table E20; MFI at 33.3 nM relative to CD80 WT IgV-Fc", "in_short": "as §1", "units": {"CD28 Fold change to WT CD80": "fold"}}
{"molecule": "B1", "CD28 Fold change to WT CD80": 82.2}
{"molecule": "B2", "CD28 Fold change to WT CD80": 30.3}
{"molecule": "B3", "CD28 Fold change to WT CD80": 77.8}
{"molecule": "B4", "CD28 Fold change to WT CD80": 77.8}
{"molecule": "B5", "CD28 Fold change to WT CD80": 7.4}
{"molecule": "B6", "CD28 Fold change to WT CD80": 44.5}
{"biological_target": "T1, CD28", "assay": "Jurkat/IL2 + CHO/OKT3 +/- PD-L1 reporter assay: PD-L1-dependent CD28 costimulation", "assay_type": "cell-based", "parameters": "host or cells: Jurkat cells expressing an IL-2-luciferase reporter", "settings": "Table E22; Jurkat/IL2 + CHO/OKT3/PD-L1; 5.0 nM", "in_short": "(§2)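 Readout is relative luminescence from lysed cocultures: test protein given 15 min at room temperature to Jurkat cells before adding CHO artificial APCs displaying OKT3 alone or OKT3 plus PD-L1, then 5 h at 37 °C, 5% CO2.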", "units": {"Fold Increase over WT CD80-IgV-Fe": "fold"}}
{"molecule": "B1", "Fold Increase over WT CD80-IgV-Fe": 1.98}
{"molecule": "B2", "Fold Increase over WT CD80-IgV-Fe": 2.01}
{"molecule": "B3", "Fold Increase over WT CD80-IgV-Fe": 2.04}
{"molecule": "B4", "Fold Increase over WT CD80-IgV-Fe": 1.82}
{"molecule": "B5", "Fold Increase over WT CD80-IgV-Fe": 3.10}
{"molecule": "B6", "Fold Increase over WT CD80-IgV-Fe": 2.12}
{"biological_target": "T1, CD28", "assay": "Jurkat/IL2 + CHO/OKT3 +/- PD-L1 reporter assay: PD-L1-dependent CD28 costimulation", "assay_type": "cell-based", "parameters": "host or cells: Jurkat cells expressing an IL-2-luciferase reporter", "settings": "Table E22; Jurkat/IL2 + CHO/OKT3/PD-L1; CD80 Conc 5.0 nM", "in_short": "as §2", "units": {"Relative Luciferase Units (RLU), CD80 Conc 5.0 nM": "RLU"}}
{"molecule": "B1", "Relative Luciferase Units (RLU), CD80 Conc 5.0 nM": 771}
{"molecule": "B2", "Relative Luciferase Units (RLU), CD80 Conc 5.0 nM": 784}
{"molecule": "B3", "Relative Luciferase Units (RLU), CD80 Conc 5.0 nM": 797}
{"molecule": "B4", "Relative Luciferase Units (RLU), CD80 Conc 5.0 nM": 711}
{"molecule": "B5", "Relative Luciferase Units (RLU), CD80 Conc 5.0 nM": 1208}
{"molecule": "B6", "Relative Luciferase Units (RLU), CD80 Conc 5.0 nM": 827}
{"biological_target": "huCTLA4 (Homo sapiens, UniProt P16410)", "sequence (P16410 36-223)": "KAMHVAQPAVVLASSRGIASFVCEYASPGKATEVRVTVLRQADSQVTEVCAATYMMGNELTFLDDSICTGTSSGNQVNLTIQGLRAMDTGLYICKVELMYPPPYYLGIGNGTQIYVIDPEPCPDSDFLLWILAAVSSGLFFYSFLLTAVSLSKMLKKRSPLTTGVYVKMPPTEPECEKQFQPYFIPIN", "assay": "Flow binding to CHO cells stably expressing CTLA4", "parameters": "huCTLA4 and huPD-L1, full-length mammalian surface expression constructs were generated; expressed in transfected cells; host or cells: CHO cells, lentiviral transduction, sorted to >98% purity", "settings": "Table E20; CHO cells stably expressing CTLA4; 33.3 nM", "in_short": "as §1"}
{"molecule": "B1", "CTLA4 MFI at 33.3 nM": 17418}
{"molecule": "B2", "CTLA4 MFI at 33.3 nM": 20921}
{"molecule": "B3", "CTLA4 MFI at 33.3 nM": 22321}
{"molecule": "B4", "CTLA4 MFI at 33.3 nM": 27607}
{"molecule": "B5", "CTLA4 MFI at 33.3 nM": 23990}
{"molecule": "B6", "CTLA4 MFI at 33.3 nM": 21955}
{"biological_target": "huCTLA4 (Homo sapiens, UniProt P16410)", "assay": "Flow binding to CHO cells stably expressing CTLA4", "parameters": "huCTLA4 and huPD-L1, full-length mammalian surface expression constructs were generated; expressed in transfected cells; host or cells: CHO cells, lentiviral transduction, sorted to >98% purity", "settings": "Table E20; MFI at 33.3 nM relative to CD80 WT IgV-Fc", "in_short": "as §1", "units": {"CTLA4 Fold change to WT CD80": "fold"}}
{"molecule": "B1", "CTLA4 Fold change to WT CD80": 12.8}
{"molecule": "B2", "CTLA4 Fold change to WT CD80": 15.4}
{"molecule": "B3", "CTLA4 Fold change to WT CD80": 16.4}
{"molecule": "B4", "CTLA4 Fold change to WT CD80": 20.3}
{"molecule": "B5", "CTLA4 Fold change to WT CD80": 17.7}
{"molecule": "B6", "CTLA4 Fold change to WT CD80": 16.2}
{"biological_target": "huPD-L1 (Homo sapiens, UniProt Q9NZQ7)", "sequence (Q9NZQ7 19-290)": "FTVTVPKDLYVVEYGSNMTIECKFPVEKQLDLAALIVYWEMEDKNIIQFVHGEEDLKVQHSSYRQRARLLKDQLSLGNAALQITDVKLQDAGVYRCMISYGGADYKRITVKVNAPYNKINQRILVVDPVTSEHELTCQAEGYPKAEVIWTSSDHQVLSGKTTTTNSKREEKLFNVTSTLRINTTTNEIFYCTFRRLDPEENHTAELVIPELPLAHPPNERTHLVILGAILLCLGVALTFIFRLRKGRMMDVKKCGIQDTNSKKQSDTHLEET", "assay": "Flow binding to CHO cells stably expressing PD-L1", "parameters": "huCTLA4 and huPD-L1, full-length mammalian surface expression constructs were generated; expressed in transfected cells; host or cells: CHO cells, lentiviral transduction, sorted to >98% purity", "settings": "Table E20; CHO cells stably expressing PD-L1; 33.3 nM", "in_short": "as §1"}
{"molecule": "B1", "PD-L1 MFI at 33.3 nM": 31114}
{"molecule": "B2", "PD-L1 MFI at 33.3 nM": 12073}
{"molecule": "B3", "PD-L1 MFI at 33.3 nM": 30670}
{"molecule": "B4", "PD-L1 MFI at 33.3 nM": 23482}
{"molecule": "B5", "PD-L1 MFI at 33.3 nM": 9951}
{"molecule": "B6", "PD-L1 MFI at 33.3 nM": 13204}
{"biological_target": "huPD-L1 (Homo sapiens, UniProt Q9NZQ7)", "assay": "Flow binding to CHO cells stably expressing PD-L1", "parameters": "huCTLA4 and huPD-L1, full-length mammalian surface expression constructs were generated; expressed in transfected cells; host or cells: CHO cells, lentiviral transduction, sorted to >98% purity", "settings": "Table E20; MFI at 33.3 nM relative to CD80 WT IgV-Fc", "in_short": "as §1", "units": {"PD-L1 Fold change to WT CD80": "fold"}}
{"molecule": "B1", "PD-L1 Fold change to WT CD80": 713.6}
{"molecule": "B2", "PD-L1 Fold change to WT CD80": 276.9}
{"molecule": "B3", "PD-L1 Fold change to WT CD80": 703.4}
{"molecule": "B4", "PD-L1 Fold change to WT CD80": 538.6}
{"molecule": "B5", "PD-L1 Fold change to WT CD80": 228.2}
{"molecule": "B6", "PD-L1 Fold change to WT CD80": 302.8}
{"biological_target": "huPD-L1 (Homo sapiens, UniProt Q9NZQ7)", "assay": "Flow binding to CHO cells stably expressing PD-L1", "parameters": "huCTLA4 and huPD-L1, full-length mammalian surface expression constructs were generated; expressed in transfected cells; host or cells: CHO cells, lentiviral transduction, sorted to >98% purity", "settings": "Table E20; ratio of MFI at 33.3 nM", "in_short": "as §1"}
{"molecule": "B1", "Ratio of PDL1:CD28": 8.6}
{"molecule": "B2", "Ratio of PDL1:CD28": 9.1}
{"molecule": "B3", "Ratio of PDL1:CD28": 9.0}
{"molecule": "B4", "Ratio of PDL1:CD28": 6.9}
{"molecule": "B5", "Ratio of PDL1:CD28": 30.7}
{"molecule": "B6", "Ratio of PDL1:CD28": 6.8}
